Data on 2 substances can be found in US12060408B2, “Screening assays, modulators and modulation of activation of Receptor for Advanced Glycation End-products (RAGE)” (Monash University, priority 2017, dated 2024).

Assay [1] addresses T1, IQGAP-1 (Cricetulus griseus, UniProt A0A8C2MPD4).
T1 construct: 5×10^7 CHO cells stably transfected with Hs-AT1R were lysed using RIPA buffer; endogenous in cells; host or cells: lysate of CHO cells stably transfected with Hs-AT1R
In words: Pull down from cytosolic components on a column coated with S391A-RAGE362-404. Type of assay: binding. To be noted: column coated with the peptide. The source says: FIG. 11C. Pull down of a protein identified as IQGAP-1 from other cytosolic components using a column coated with the mutant RAGE cytosolic tail (S391A-RAGE362-404), as well as IQGAP-1 associated proteins, ezrin/radixin/moesin and the GPCR olfactory receptor 2T2.

Assay [2] addresses T1, IQGAP-1. Briefly: Pull-down on column coated with S391A-RAGE362-404, proteomic analysis. To be noted: lysate of CHO cells stably transfected with Hs-AT1R; NiNTA column; FIG. 11C. Type of assay: binding. The protocol:
The TAT-Cherry-S391A-RAGE362-404 peptide and TAT-mCherry control peptide were bound to a gravity flow NiNTA column, and equilibrated using lysis buffer (50 mM Tris pH 7.5, 300 mM NaCl, 5 mM βB-mercaptoethanol, 10 mM imidazole. 5×10^7 CHO cells stably transfected with Hs-AT1R were lysed using RIPA buffer (1×PBS supplemented with 1% NP-40, 0.5% Na-deoxycholate with protease and phosphatase inhibitors), diluted to 50 ml in lysis buffer and passed over the Ni-NTA column twice by gravity flow. The 1 ml column was washed extensively (200 ml wash buffer-50 mM Tris pH 7.4, 300 mM NaCl, 5 mM β-mercaptoethanol, 20 mM imidazole). After washing, 2 ml of elution buffer (50 mM Tris pH 7.4, 300 mM NaCl, 5 mM β-mercaptoethanol, 250 mM imidazole) was applied to the column, and used to elute proteins that had bound to either the A peptide or TAT-mCherry control peptide. 1 ml of sample was delivered for proteomic analysis by Mass Spectroscopy. Venny 2.1.0 was used to generate lists of the proteins differentially bound to the two proteins.

The test system of assay [3] is apoE KO mice. In words: Aortic plaque area quantitation (Sudan IV staining of aortic arch). Type of assay: in vivo, mouse. The source says: C57bl6 mice, AGER knockout (KO) mice, apoE KO mice, AGER/apoE double knockout (DKO), Ace2/apoE DKO and AGER/Ace2/apoE triple knockout (TKO) mice were sourced and generated in-house at the AMPREP animal house. All mice were bred on a C57bl6 background. For experimental studies, male mice aged 6-8 weeks and weighing between 20-25 g were used, with at least 8 animals per group for in vivo studies and n=6/group for ex vivo studies. Throughout the study animals were given access to mouse chow and water ad libitum. All experiments were approved by the animal ethics committee of the Alfred Medical Research Precinct and conducted in accordance with the Guide for the Care and Use of Laboratory Animals published by the US National Institutes of Health (NIH Publication No. 85-23, revised 1996).
Aortic Plaque Area Quantitation Method
Aortic arches were removed from mice, cleaned of excess fat, placed in 10% neutral buffered formalin and subsequently stained with Sudan IV-Herxheimer's solution (0.5% w/vol; Gurr, BDH Limited, Poole, UK). Aortae were then dissected longitudinally, and pinned flat onto a wax pad. Plaque accumulation across the aortic arch was quantitated as the percentage area stained red.
Angiotensin Infusion Model […]

Assay [4] concerns apoE KO mice. Briefly: Induction of oxidative stress (plasma 8-OHdG ELISA, aortic NOX-1/NOX-4 RT-PCR). To be noted: four-week infusion 1 μg/kg/min. Type of assay: in vivo, mouse. An excerpt:
Induction of Oxidative Stress
The induction of oxidative stress in each animal model was estimated by the measurement of plasma levels of 8-hydroxydeoxyguanosine using the OxiSelect Oxidative DNA Damage ELISA Kit (8-OHdG Quantitation; Cell Biolabs, Inc), and performed as per manufacturer's instructions. In addition, gene expression of the superoxide-producing NADPH oxidase subunits, NOX-1 and NOX-4 were quantitated in the aortae of mice using real time RT-PCR, as detailed above.

Another assay concerns the target AT1 receptor (Homo sapiens, UniProt P30556). In words: Receptor-HIT BRET, β-arrestin2/Venus with RAGE/Rluc8 and AT1 receptor. It is filed as cell-based. The protocol: The BRET ratio was calculated by subtracting the ratio of ‘acceptor emission’ over ‘donor emission’ for a cell sample expressing Rluc8-tagged protein alone from the same ratio for a cell sample expressing both Rluc8 and Venus-tagged proteins. Alternatively, the ligand-induced BRET signal was calculated by subtracting the ratio of ‘acceptor emission’ over ‘donor emission’ for a vehicle-treated cell sample from the same ratio for a second aliquot of the same cells treated with agonist.
The fluorescence/luminescence ratio was generated by dividing the fluorescence values in arbitrary units (obtained with the EnVision) by the luminescence values also in arbitrary units (obtained as part of the BRET assay).
For orientation: Bioluminescence resonance energy transfer reports proximity on the nanometre scale.

The next assay concerns the target T2, AT1 (Homo sapiens, UniProt P30556).
T2 sequence (P30556 1-359): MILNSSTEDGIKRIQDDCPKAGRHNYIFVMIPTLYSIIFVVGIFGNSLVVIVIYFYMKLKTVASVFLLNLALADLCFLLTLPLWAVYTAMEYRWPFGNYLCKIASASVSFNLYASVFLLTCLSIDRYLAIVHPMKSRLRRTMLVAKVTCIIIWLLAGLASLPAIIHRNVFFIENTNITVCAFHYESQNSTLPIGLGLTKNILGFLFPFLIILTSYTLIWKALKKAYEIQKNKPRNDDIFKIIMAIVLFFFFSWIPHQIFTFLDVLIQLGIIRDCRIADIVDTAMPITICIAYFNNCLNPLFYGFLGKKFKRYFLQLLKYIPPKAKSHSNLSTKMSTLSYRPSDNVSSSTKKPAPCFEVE
In words: Classical GPCR signalling (IP-one HTRF, EGR1) in AT1R-CHO cells. Type of assay: cell-based. Also noted: expressed in transfected cells. To be noted: 1 μM. Background: Time-resolved FRET reads energy transfer from a long-lived donor to a nearby acceptor.

T1 sequence (A0A8C2MPD4 1-1657): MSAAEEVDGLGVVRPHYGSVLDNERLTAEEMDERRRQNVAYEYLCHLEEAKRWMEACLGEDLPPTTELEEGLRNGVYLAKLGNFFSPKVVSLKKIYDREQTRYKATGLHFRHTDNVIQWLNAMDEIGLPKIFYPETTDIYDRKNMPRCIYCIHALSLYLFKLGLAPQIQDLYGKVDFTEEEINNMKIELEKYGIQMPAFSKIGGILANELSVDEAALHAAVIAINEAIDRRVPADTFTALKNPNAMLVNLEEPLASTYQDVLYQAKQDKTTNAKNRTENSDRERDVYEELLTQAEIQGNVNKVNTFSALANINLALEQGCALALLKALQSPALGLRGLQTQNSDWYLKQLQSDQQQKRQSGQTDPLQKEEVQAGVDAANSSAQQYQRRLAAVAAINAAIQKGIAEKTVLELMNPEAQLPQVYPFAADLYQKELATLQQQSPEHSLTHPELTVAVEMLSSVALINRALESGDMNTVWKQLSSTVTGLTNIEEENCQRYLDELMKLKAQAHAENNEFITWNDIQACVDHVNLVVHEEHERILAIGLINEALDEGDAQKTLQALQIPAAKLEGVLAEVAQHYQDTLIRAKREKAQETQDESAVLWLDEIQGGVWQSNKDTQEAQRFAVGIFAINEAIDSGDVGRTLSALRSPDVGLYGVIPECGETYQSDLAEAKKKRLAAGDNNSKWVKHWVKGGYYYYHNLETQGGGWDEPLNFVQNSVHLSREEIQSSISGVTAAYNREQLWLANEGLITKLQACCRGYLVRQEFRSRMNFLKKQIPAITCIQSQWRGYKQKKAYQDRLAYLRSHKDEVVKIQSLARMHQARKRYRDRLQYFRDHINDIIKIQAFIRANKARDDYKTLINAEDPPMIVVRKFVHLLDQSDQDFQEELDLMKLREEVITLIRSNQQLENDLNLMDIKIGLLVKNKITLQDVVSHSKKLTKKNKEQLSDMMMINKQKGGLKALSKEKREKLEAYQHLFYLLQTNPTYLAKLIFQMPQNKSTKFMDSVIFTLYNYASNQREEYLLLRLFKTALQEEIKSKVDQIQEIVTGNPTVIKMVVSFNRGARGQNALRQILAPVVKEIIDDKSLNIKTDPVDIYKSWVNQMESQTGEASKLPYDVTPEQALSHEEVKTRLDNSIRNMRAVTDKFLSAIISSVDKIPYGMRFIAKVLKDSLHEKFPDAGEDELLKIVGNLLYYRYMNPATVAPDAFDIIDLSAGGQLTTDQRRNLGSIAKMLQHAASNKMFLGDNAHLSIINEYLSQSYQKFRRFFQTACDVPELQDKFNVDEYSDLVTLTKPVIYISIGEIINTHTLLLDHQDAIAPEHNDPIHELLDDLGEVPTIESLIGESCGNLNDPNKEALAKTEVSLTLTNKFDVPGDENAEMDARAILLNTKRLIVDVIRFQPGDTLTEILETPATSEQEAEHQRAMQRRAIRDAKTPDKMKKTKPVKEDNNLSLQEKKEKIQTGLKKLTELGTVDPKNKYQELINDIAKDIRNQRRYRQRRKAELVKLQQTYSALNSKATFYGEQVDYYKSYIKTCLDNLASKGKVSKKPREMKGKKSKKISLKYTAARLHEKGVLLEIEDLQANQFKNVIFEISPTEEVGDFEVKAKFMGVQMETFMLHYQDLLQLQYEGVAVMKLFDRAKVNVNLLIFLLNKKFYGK
AT1 receptor, sequence (P32121 whole entry partner, one chain of several): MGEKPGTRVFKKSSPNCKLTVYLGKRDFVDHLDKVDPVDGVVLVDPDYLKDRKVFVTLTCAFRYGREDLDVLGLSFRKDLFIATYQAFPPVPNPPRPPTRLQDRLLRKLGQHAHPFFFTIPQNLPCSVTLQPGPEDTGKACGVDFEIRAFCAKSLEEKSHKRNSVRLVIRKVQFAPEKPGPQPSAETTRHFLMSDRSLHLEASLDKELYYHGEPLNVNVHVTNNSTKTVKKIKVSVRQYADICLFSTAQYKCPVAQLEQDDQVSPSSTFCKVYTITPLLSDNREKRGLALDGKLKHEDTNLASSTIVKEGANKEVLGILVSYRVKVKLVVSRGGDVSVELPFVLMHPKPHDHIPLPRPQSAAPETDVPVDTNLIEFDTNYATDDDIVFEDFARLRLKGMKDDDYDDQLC

As to “L362WQRRQRRGEERKAPENQEEEEERAELNQAEEPEAGESSTGGP404 (LWQRRQRRGEERKAPENQEEEEERAELNQAEEPEAGESSTGGP; listed as Homo sapiens) [S391A-RAGE362-404, S391A mutant RAGE cytosolic tail; non-functional substitute for RAGE]”, in the assay with IQGAP-1 [1], the “pull down of IQGAP-1 (and ezrin/radixin/moesin, olfactory receptor 2T2) from cytosolic components” value was “Pull down”. Further, the “association with IQGAP-1 (pull-down)” value with IQGAP-1 [2] was “preferentially associates with IQGAP-1”.

In the case of “angiotensin II (DRVYIHPF) [Ang II, cognate ligand of AT1R]”, the “atherogenesis (plaque area)” value in the assay on apoE KO mice [3] (AGER/apoE DKO mice, four-week infusion 1 μg/kg/min) is listed as “prevents the increase in atherogenesis”. The “atherogenesis (percentage of the aortic arch surface area staining positive to Sudan IV)” value in the assay with apoE KO mice [3] (apoE KO mice, four-week infusion 1 μg/kg/min vs untreated) was “increases atherogenesis”. Further, the oxidative stress entry in the assay with apoE KO mice [4] (AGER/apoE DKO mice) is “preventing”. In addition, the “markers of oxidative stress” value in the assay on apoE KO mice [4] (apoE KO mice) is “increases”. The “recruitment of βarrestin2/Venus to AT1/Rluc8” value in the assay with AT1 receptor (control) is “recruitment”. Moreover, the “recruitment of β-arrestin2/Venus proximal to RAGE/Rluc8” value with AT1 receptor (in the presence of AT1 receptor) is “recruitment”. For the same substance, the “classical responsiveness: inositol phosphate synthesis and EGR1 induction” value in the assay with AT1 was “induction”.
